Measured values as given in patent US12551573B2, “Compositions and methods for the targeting of PCSK9” (Scribe Therapeutics Inc., priority 2022, dated 2026).

B1: DOMAIN_10277 (protein, listed as Dipodomys ordii)
chain: SNKLVSFDDVAVEFSWEEWQELDISQRTLYRDVMLETYSMLVSLGHTGPKPQLIVKLEQDEESYMREASDKNFSDVQKMKH
B2: DOMAIN_13331 (protein, listed as Macaca fascicularis)
chain: FQGSISFKDVTVGFTQEEWQHLDPSQRALYRDVMLENYSNLVSVGYCVHKPEVISRLEQGEEPWRLEEEFPSQSFPVWTAD
B3: DOMAIN_9960 (protein, listed as Octodon degus)
chain: AVTMEDVTVTFTNEEWALLNPAQKRLYGDVMWETFRTISAIGRTWDSQQMEEEYKNYLRNLSNEEVAKCCRYTTFNQHENI
B4: DOMAIN_13539 (protein, listed as Gorilla sp.)
chain: CYQDSVTFDDVAVDFTQEEWTLLDSTQRSLYSDVMLENYKNLATVGGQIIKPSLISWLEQEESRTVQGGVLRGRKTQWRGT
B5: DOMAIN_11944 (protein, listed as Bos indicus)
chain: PQESVTFEDVAVNFSHEEWQCLTHAQRHLYKDVMLENYGNMVSLGFSFSKPPLISRLEQGTEPYVQDRQDWEFLSCSYPVS
B6: DOMAIN_11097 (protein, listed as Mandrillus leucophaeus)
chain: KEASVAFRDVAVDFTQEEWRLLSPAQRTLHREVMLETYNHLVSLEIPSSKPKLIAQLERGEEPWREERKCSLDLCPESKPE
B7: DOMAIN_11071 (protein, listed as Chrysochloris asiatica)
chain: SLEQVSFKDVCVDFTQEEWYLLDPAQKILYRDVILENYSNIVSVGHCGTKPEVIFKIEQGEEPWVLGEGFSSLQHPERNWK
B8: DOMAIN_10573 (protein, listed as Cervus elaphus)
chain: SHTLVTFKDILVNFTREEWKLLDTAQQIMYKDVMLENYRNLVSLGHQLPKPDVILRLEKGEEPWLVEKEIHQETHPDLETP
B9: DOMAIN_9716 (protein, listed as Mus caroli)
chain: PKVTVSFEDVSVYFTKTEWKLLDLKQRNLYKQVMLENYSHLVSVGFAFSKPNLVSQLERGEKPWIRDDRMESAARSRAGNR
B10: DOMAIN_9559 (protein, listed as Mus caroli)
chain: MGLVSFEDIAVYFNLEEWQDLDTAQRTLYRDVMLETYSSLVFLDPCIAKPKLIFNLERGFGPWSLAEASSRSLPGVHNVST
B11: DOMAIN_10974 (protein)
chain: AQMLVTFEEVAVYFTQGQGALLGPAQRALYRDVMQENYEMVTSLGFSLPKPELISRLERGEEPWVPDLQACEKRESLRGAR
modifications: Chelonia mydas
B12: DOMAIN_9858 (protein, listed as Mesocricetus auratus)
chain: MDAVTYDDVHINFTLEEWALLNPSQKSLYKDVMLDTYRNLTAIGYSWDDHNIEEICQSSRSHRRHLQRHAKINTGEKPYGS
B13: DOMAIN_10057 (protein, listed as Mus musculus)
chain: MDALTFDDVHVHFTREEWSLLDPSQKRLYKDVMLEIYKNLTAIGYKWKDHNVGEHSQNDRRYGRHERSPAGENHNEYTQCD
B14: DOMAIN_10612 (protein)
chain: ALESVTFRDVAVFFSRDEWLHLNPAQRALYREVMLDNYSALLSLGILFSKPKVILQLEQGEDPWMVENGVSQSACLGWESL
modifications: Vicugna pacos
B15: DOMAIN_12114 (protein, listed as Neophocaena asiaeorientalis)
chain: VQASLSFEDVAVRFTWEEWQLLDPSQKDLYRNVMLENYCNLVSVGYQTPKPDSLFQLEQGEPPWRVEGAGQSQTCPEEIWE
B16: DOMAIN_11359 (protein, listed as Sus scrofa)
chain: AQGQVTFEDVAVCFSQEEWGLLDETQRLLYRSVMLETFSLMASLGLTSSRTHDISQLERWGEPFLSASGAMRATRPTGCWH
B17: DOMAIN_11049 (protein, listed as Neophocaena asiaeorientalis)
chain: PQGCAISEDVFVYFSREEWVLLDEDQRLLYRDVMLENFALLASLGIASSRSHLVTQLEQGEEPWMPAQVDMTPATEKEAQK
B18: DOMAIN_11796 (protein, listed as Sus scrofa)
chain: FRGPVTFKDITVEFTQEEWQLLDNAQRTLYREVMQENYHHLISVGYCVNKPNAVFKLKQGKEPWILEVEFPRRNNPEDLWN
B19: DOMAIN_9993 (protein, listed as Rattus norvegicus)
chain: DVVTYEDVHVNFTQEEWALLDPSQKRLYKVVMLETYKNLSAIGYIWEDHTIEQHFQSSRSHGRHKRHRTGEQPSELIQHGK
B20: DOMAIN_9617 (protein, listed as Mesocricetus auratus)
chain: LQDSVTFKDVAVDFSQEEWERLNPAQRSLYRTVVLENYWNLVSVGACVSKSHLISLLEHGKAPWDMRGEVTESTSQDGESV
B21: DOMAIN_11908 (protein, listed as Canis lupus)
chain: CEGSVSFEDVTMDFSREEWQQLDPAQRCLYQDVMLEIYSHLLFVGYNIPNPEIISRMEKGEEPWMREIQLPHQRHRERAFG
B22: DOMAIN_9706 (protein, listed as Octodon degus)
chain: SPVLVSFDDVFVSFTREEWQVLDNAQRALYGDVMLETYRSLVLLGQCITKPEVIFKLEQGVEPWTGGEPHNQSPPDVQEVD
B23: DOMAIN_11314 (protein, listed as Sus scrofa)
chain: VTFEDVALYFSRDEWRLLDEAQRRLYHDVMLQNFSLISSLGCCCGAEDAESPFQPSMFRDVSQARTLKAASLSQKNHPCEK
B24: DOMAIN_9332 (protein, listed as Peromyscus maniculatus)
chain: TENAVTYDDVHVGFTWEEWALLDPSQKNLYKDVMLDTYRNLTTIGYSWEGHNIEEHFQSSRRHERHKRSDTGENSSVYTQC
B25: DOMAIN_11312 (protein, listed as Sus scrofa)
chain: ALGSVTFRDVAVFFSQDEWLHLDSAQKTLYQEVMLENYSTLVSLGIPFSMPKVICQLQQGEDPCMVEGEALRDPCLDFKTW
B26: DOMAIN_11581 (protein, listed as Equus caballus)
chain: LQVSVSFEDVTVDFSREEWQHLDPAQRRLYRDVTLENYSHLCSVGYQVPKPEVIFKLEQGEGPWMLEGEAPHQSCSDDDIG
B27: DOMAIN_9541 (protein, listed as Dipodomys ordii)
chain: SQGLVTFEDVAVYFSLEEWERLNVEQRALYQEVMQGNYGILVSLGYPIPKPDLIFRLEQGEEPWVPDSPHPEEGDIVTGVY
B28: DOMAIN_10807 (protein, listed as Erinaceus europaeus)
chain: SQASVSFKDVTVEFTQDEWRLMSSAQRTLYREVMLENYSHLISMGYCSTKPELIFALEQKDFRESILERESLSTIPPEDFQ
B29: DOMAIN_9489 (protein, listed as Dipodomys ordii)
chain: LASISFEDLAVTFTEEEWEHLDLGQRNLYQEVMLETYQLLVSLGDQVRLAPPTPGTPLPALPAQPRLLGLPSQPLDRRGTP
B30: DOMAIN_10241 (protein, listed as Octodon degus)
chain: PTAPVAFSDLTICFSQEEWGWLSPTQKLLYEEVMLENYQNLVSVGLCTRKPHIITLLEKGKDPWIAEPLRKRGGPDPASRY
B31: DOMAIN_11988 (protein)
chain: MAFEDVAVHFSQEEWGLLDTAQRSLYRRVMLENFALLASLGLSVSRPHVVTQLERGEEPWVLSGVDVTLPQDAQRRPRRGS
modifications: Muntiacus muntjak
B32: DOMAIN_11307 (protein, listed as Mandrillus leucophaeus)
chain: MAFEDVAVYFSQEEWGLLDTAQRALYRRVMLDNFALVASLGLSTSRPRVVIQLERGEEPWVPSRTDTILSRNTYRRRNPGS
B33: DOMAIN_11321 (protein)
chain: GKELLSFEDVAMYFTREEWGHLNLGQKDLYRDVMLENYRNMVLLGFQFPKPEVICQLENWDEQWILDLPRAGNRKASGSAC
modifications: Nomascus leucogenys
B34: DOMAIN_10359 (protein)
chain: AQGLMAFEDVAVYFSREEWGLLDAAQRALYRRVMLENFTLLASLGLSVSRPHVVIQLECGKEPWVLNGTDVTLARNAQRRP
modifications: Delphinapterus leucas
B35: DOMAIN_11202 (protein)
chain: RQAFLAFGDVTVDFTQKEWRLLSPAQRALYREVTLENYSHLVSLGILHSKPELIRRLEQGEAPWGEERRRRPGPCAGIYAE
modifications: Nomascus leucogenys
B36: DOMAIN_12057 (protein)
chain: LLESVTFGDVAVVFSRDEWLHLDAAQRSLYREVMLENYSALVSLGIPLSIPKLICQLQQGEDPCMVEREIPQDVCLGFKTW
modifications: Muntiacus muntjak
B37: DOMAIN_10763 (protein, listed as Mustela putorius)
chain: PKVPVSFEDVSVYFTKTEWKLLDVQQRILYKTVMLENYHHLVSLGCLSTKPHLVSWLEQGEGPWTTDIWRTPATAKTQTEG

tested on: HBEGF locus; assay type: cell-based, human; conditions: high-throughput screen of dXR repression of the HBEGF gene; change in abundance of each domain in the library before and after diphtheria toxin selection

| Molecule | Log2 (fold change) |
| --- | --- |
| B1 | 2.8257 |
| B2 | 3.5154 |
| B3 | 3.4751 |
| B4 | 3.4924 |

same assay, conditions: repressor domain in dXR, repression of the HBEGF gene; abundance of domain in library after vs before diphtheria toxin selection

| Molecule | Log2 (fold change) |
| --- | --- |
| B5 | 3.2762 |
| B6 | 3.239 |
| B7 | 3.1268 |
| B8 | 2.4077 |
| B9 | 2.9009 |
| B10 | 3.327 |
| B11 | 2.6444 |
| B12 | 3.0047 |
| B13 | 2.2961 |
| B14 | 2.4997 |
| B15 | 3.3227 |
| B16 | 3.1036 |
| B17 | 2.7072 |
| B18 | 2.2811 |
| B19 | 2.7601 |
| B20 | 2.4034 |
| B21 | 2.894 |

| Molecule | Log2 (fold change) |
| --- | --- |
| B22 | 2.821 |
| B23 | 2.9575 |
| B24 | 3.9002 |
| B25 | 3.8532 |
| B26 | 3.1882 |
| B27 | 2.8442 |
| B28 | 3.5237 |
| B29 | 3.0215 |
| B30 | 3.5766 |
| B31 | 3.5916 |
| B32 | 3.6383 |
| B33 | 2.9718 |
| B34 | 2.9199 |
| B35 | 3.5851 |
| B36 | 2.0631 |
| B37 | 2.5924 |
